From article PMC7750480, “A hybrid approach reveals the allosteric regulation of GTP cyclohydrolase I” (Proceedings of the National Academy of Sciences of the …, 2020)

Experiments:
Format in all cases: biochemical, human
Conditions in all cases: other: substrate GTP 1-2000 µM, without GFRP, not stimulated/inhibited; pH 7.5; 37.0 °C
[1] = substrate: Nc1nc2c(ncn2[C@@H]2O[C@H](COP(=O)(O)OP(=O)(O)OP(=O)(O)O)[C@@H](O)[C@H]2O)c(=O)[nH]1; assay: enzyme kinetics, H2NTP formation at 330 nm, F122A GCH1
Experimental: (§1) In order to test the role of the key residues H126, D127, E128, R235, and R241 involved in allosteric inhibitor binding and conformational change, various point mutants were prepared and tested for their ability to be stimulated and inhibited by effector molecules in the presence or absence of GFRP. […] Enzyme activity was evaluated using an activity assay measuring the formation of the product H2NTP at 330 nm with increasing GTP concentrations.
(§2) GTPCH-I specific enzyme activity was determined by spectrometric measuring of the concentration of its direct product H2NTP. Synergy H1 (BioTek Instruments) and Gen5 2.01 software were used to evaluate H2NTP concentration and the maximal turnover rate (Vmax) within each measuring interval. H2NTP concentration was measured at 330 nm over a measuring period of 2 h using a measuring interval of 2 min to 4 min at 37 °C. Samples were prepared using 2 μM GTPCH-I, varying concentrations of GTP (1 μM to 2,000 µM) and in the absence or presence of 15 mM phenylalanine, 0.1 mM BH4, or 3 μM GFRP. The assay buffer used was 50 mM Tris/HCl, pH 7.5, 100 mM KCl. The specific enzyme activity (A) was calculated using the path length of 0.15 cm and the extinction coefficient […] = 6,300 M^−1⋅cm^−1 H2NTP. […] All enzymatic data were, at least, measured in triplicate (n = 3).

[2] = substrate: Nc1nc2c(ncn2[C@@H]2O[C@H](COP(=O)(O)OP(=O)(O)OP(=O)(O)O)[C@@H](O)[C@H]2O)c(=O)[nH]1; assay: enzyme kinetics, H2NTP formation at 330 nm, R241A-GCH1
Experimental: as §1, §2

[3] = substrate: Nc1nc2c(ncn2[C@@H]2O[C@H](COP(=O)(O)OP(=O)(O)OP(=O)(O)O)[C@@H](O)[C@H]2O)c(=O)[nH]1; assay: enzyme kinetics, H2NTP formation at 330 nm, D127A GCH1
Experimental: as §1, §2

[4] = substrate: Nc1nc2c(ncn2[C@@H]2O[C@H](COP(=O)(O)OP(=O)(O)OP(=O)(O)O)[C@@H](O)[C@H]2O)c(=O)[nH]1; assay: enzyme kinetics, H2NTP formation at 330 nm, R235A-GCH1
Experimental: as §1, §2

B1: F122A GCH1 (Homo sapiens; F122A) (protein)
chain: PEAKSAQPADGWKGERPRSEEDNELNLPNLAAAYSSILSSLGENPQRQGLLKTPWRAASAMQFFTKGYQETISDVLNDAIADEDHDEMVIVKDIDMFSMCEHHLVPFVGKVHIGYLPNKQVLGLSKLARIVEIYSRRLQVQERLTKQIAVAITEALRPAGVGVVVEATHMCMVMRGVQKMNSKTVTSTMLGVFREDPKTREEFLTLIRS
notes: The hGCH1 (42-250, N-terminal 6xHis Tag and TEV cleavage site); 6xHis (N); TEV cleavage site (N); made in house; host or cells: E. coli BL21(DE3)
Km [1]: 434 µM

B2: R241A-GCH1 (Homo sapiens; R241A) (protein)
chain: PEAKSAQPADGWKGERPRSEEDNELNLPNLAAAYSSILSSLGENPQRQGLLKTPWRAASAMQFFTKGYQETISDVLNDAIFDEDHDEMVIVKDIDMFSMCEHHLVPFVGKVHIGYLPNKQVLGLSKLARIVEIYSRRLQVQERLTKQIAVAITEALRPAGVGVVVEATHMCMVMRGVQKMNSKTVTSTMLGVFREDPKTAEEFLTLIRS
notes: as for B1
Km [2]: 306 µM

B3: D127A GCH1 (Homo sapiens; D127A) (protein)
chain: PEAKSAQPADGWKGERPRSEEDNELNLPNLAAAYSSILSSLGENPQRQGLLKTPWRAASAMQFFTKGYQETISDVLNDAIFDEDHAEMVIVKDIDMFSMCEHHLVPFVGKVHIGYLPNKQVLGLSKLARIVEIYSRRLQVQERLTKQIAVAITEALRPAGVGVVVEATHMCMVMRGVQKMNSKTVTSTMLGVFREDPKTREEFLTLIRS
notes: as for B1
Km [3]: 483 µM

B4: R235A-GCH1 (Homo sapiens; R235A) (protein)
chain: PEAKSAQPADGWKGERPRSEEDNELNLPNLAAAYSSILSSLGENPQRQGLLKTPWRAASAMQFFTKGYQETISDVLNDAIFDEDHDEMVIVKDIDMFSMCEHHLVPFVGKVHIGYLPNKQVLGLSKLARIVEIYSRRLQVQERLTKQIAVAITEALRPAGVGVVVEATHMCMVMRGVQKMNSKTVTSTMLGVFAEDPKTREEFLTLIRS
notes: as for B1
Km [4]: 328 µM
